Source: US20230106131A1 (OHIO STATE INNOVATION FOUNDATION, published 2023)
Each block holds one binder with its values, some of them ahead of it. Numbered stars: 1 amine (or outer) side, 2 acyl side, 3 side chain; on linkers, the order of the positions; unused ones are H or OH. Bridge positions count the residues as written; N and C are the ends. Square brackets hold non-standard residues; d marks the D form. Side chains are listed from the residue outwards. Ends that are not written are not given here. * marks the point of attachment. aminooxyacetyl = aminooxyacetyl (from Boc-aminooxyacetyl acylation of Lys side-chain amine), NOCC(=O)*; 2Nal = N[C@@H](Cc1ccc2ccccc2c1)C(=O)O; mXylylene = c1cc(C[*:1])cc(C[*:2])c1; CH2COCH2 = O=C(C[*:1])C[*:2]; hCys = N[C@@H](CCS)C(=O)O; AEEA = NCCOCCOCC(=O)O

Assays:
[1] = target: T1, GST-MDM2 (human MDM2 residues 17-125) (human, UniProt Q00987 17-125); test: direct binding of the FITC-labeled peptide to MDM2
T1 construct: range 17-125; No removal of GST is reported; not shown: glutathione S-transferase (GST) tag encoded by vector pGEX-6P-2

[2] = target: T1, GST-MDM2 (human MDM2 residues 17-125); test: direct binding of the FITC-labeled peptide to MDM2 (the text differs from Table 7)
[3] = target: T1, GST-MDM2 (human MDM2 residues 17-125); test: ratio of KD values of FITC-labeled peptides
[4] = target: T1, GST-MDM2 (human MDM2 residues 17-125); test: fluorescence anisotropy competition with FITC-labeled peptide 1 for MDM2
[5] = target: T1, GST-MDM2 (human MDM2 residues 17-125); test: direct binding of the FITC-labeled peptide to MDM2; remark: listed apart in the source

- Kd [1]: 15 nM
- Kd [2]: 14 nM
- fold improvement of MDM2 binding affinity against peptide 1 [3]: 5 fold
B1: peptide 8, Ac-LTFhCHYWhCQLTS-miniPEG-K(FITC)-NH2, stapled (peptide)
peptide: Ac-LTF[hCys]HYW[hCys]QLTS-{AEEA-K(FITC)-NH2}
modifications: bridge 4-8; not fully specified (bridges)
notes: No CPP

- Kd [1]: 365 nM
B2: peptide 13, Ac-EETFCHYWCQLTS-miniPEG-K(FITC)-NH2, stapled with BBA-CPP9 (peptide)
peptide 1: EETFCHYWCQLTS
peptide 2: FXRRRRQ
modifications: head-to-tail cyclic; D-Phe at 1, L-2-naphthylalanine at 2, D-Arg at 4 and 6; miniPEG-Lys linker, with the Lys side chain acylated by the BBA staple; N-terminal acetyl; Cys 5 and Cys 9 joined by a 3,5-dimethylbenzoyl (BBA) staple that carries CPP9; C-terminal miniPEG-Lys(FITC) amide

- IC50 [4]: 201 nM
B3: peptide 5 (DCA-stapled peptide 2 conjugated to CPP9 through an oxime, stereoisomer 2, unlabeled) (peptide)
peptide 1: LTF[hCys]HYW[hCys]QLTS
peptide 2: [dF][2Nal]R[dR]R[dR]Q([AEEA-Lys-aminooxyacetyl])
modifications: thioether (positions not given here) via CH2COCH2; not fully specified (bridges); also: oxime stereoisomer 2 (peak 2), Z/E not determined, further groups not given here, head-to-tail to a chain's N/C-terminus
notes: also called 3-1-1-DCA-CP9 peak2

- Kd [1]: 187 nM
B4: peptide 12, Ac-EETFCHYWCQLTS-miniPEG-K(FITC)-NH2, xylene-stapled (peptide)
peptide: Ac-EETFCHYWCQLTS-{AEEA-K(FITC)-NH2}
modifications: linker 5-9 via mXylylene
notes: No CPP

- Kd [5]: 144 nM
B5: peptide 2 (PDI with homocysteine at Glu-4 and Ala-8, stapled with DCA, FITC-labeled) (peptide)
peptide: LTFXHYWXQLTS
modifications: not fully specified; homocysteine at 4 and 8, joined by a 1,3-dichloroacetone (DCA) staple; FITC label; the rest of the structure only in drawing CHEM-US-00019
notes: X stands for homocysteine; also called 3-1-1-DCA

- Kd [1]: 190 nM
- fold decrease of MDM2-binding affinity against peptide 1 [3]: ~2.5 fold
B6: peptide 6, Ac-LTFCHYWCQLTS-miniPEG-K(FITC)-NH2, stapled (peptide)
peptide: Ac-LTFCHYWCQLTS-{AEEA-K(FITC)-NH2}
modifications: bridge 4-8; not fully specified (bridges); printed as Ac-LTFCHYWCQLTS-miniPEG-K(FITC)-NH
notes: No CPP

- Kd [1]: 36 nM
- fold improvement of binding affinity against peptide 6 [3]: 5 fold
B7: peptide 10, Ac-ETFCHYWCQLTS-miniPEG-K(FITC)-NH2, xylene-stapled (peptide)
peptide: Ac-ETFCHYWCQLTS-{AEEA-K(FITC)-NH2}
modifications: linker 4-8 via mXylylene
notes: No CPP

- IC50 [4]: 220 nM
B8: peptide 4 (DCA-stapled peptide 2 conjugated to CPP9 through an oxime, stereoisomer 1, unlabeled) (peptide)
peptide 1: LTF[hCys]HYW[hCys]QLTS
peptide 2: [dF][2Nal]R[dR]R[dR]Q([AEEA-Lys-aminooxyacetyl])
modifications: thioether (positions not given here) via CH2COCH2; not fully specified (bridges); also: oxime stereoisomer 1 (peak 1), Z/E not determined, further groups not given here, head-to-tail to a chain's N/C-terminus
notes: Peptides 4 and 5 are the two isomers separated by HPLC; also called 3-1-1-DCA-CP9 peak1

- Kd [1]: ~300 nM
- fold decrease of MDM2 binding affinity against peptide 6 [3]: ~2 fold
B9: peptide 7, Ac-LTFCHYWCQLTS-miniPEG-K(FITC)-NH2, stapled with BBA-CPP9 (peptide)
peptide 1: LTFCHYWCQLTS
peptide 2: FXRRRRQ
modifications: head-to-tail cyclic; D-Phe at 1, L-2-naphthylalanine at 2, D-Arg at 4 and 6; miniPEG-Lys linker, with the Lys side chain acylated by the BBA staple; N-terminal acetyl; Cys 4 and Cys 8 joined by a 3,5-dimethylbenzoyl (BBA) staple that carries CPP9; C-terminal miniPEG-Lys(FITC) amide

- Kd [1]: 225 nM
- fold decrease of MDM2 binding affinity against peptide 10 [3]: 6 fold
B10: peptide 11, Ac-ETFCHYWCQLTS-miniPEG-K(FITC)-NH2, stapled with BBA-CPP9 (peptide)
peptide 1: ETFCHYWCQLTS
peptide 2: FXRRRRQ
modifications: head-to-tail cyclic; D-Phe at 1, L-2-naphthylalanine at 2, D-Arg at 4 and 6; miniPEG-Lys linker, with the Lys side chain acylated by the BBA staple; N-terminal acetyl; Cys 4 and Cys 8 joined by a 3,5-dimethylbenzoyl (BBA) staple that carries CPP9; C-terminal miniPEG-Lys(FITC) amide

- Kd [5]: 171 nM
B11: peptide 3 (PDI with homocysteine at His-5 and Gln-9, stapled with DCA, FITC-labeled) (peptide)
peptide: LTFEXYWAXLTS
modifications: not fully specified; homocysteine at 5 and 9, joined by a 1,3-dichloroacetone (DCA) staple; FITC label; the rest of the structure only in drawing CHEM-US-00020
notes: X stands for homocysteine
